From PMC12643504

What was measured:
[1] = target: Full-length PKD2 (WT) (human) (UniProt Q13563); assay: SEC; channel proteins solubilised in DDM, Strep-Tactin affinity purified, reconstituted in amphipol A8-35, MBP cleaved by TEV; SEC at 4°C on Superdex 200 10/300 GL in 25 mM HEPES pH 7.4, 150 mM NaCl, 1 mM TCEP, 1 mM CaCl2; FSEC (Superose 6 5/150 GL, tryptophan fluorescence) after heating
[2] = target: PKD2 R803X Taiwan founder truncation variant (human) (UniProt Q13563); assay: as above

Substance | stoichiometry N [1] | stoichiometry N [2]
Full-length PKD2 (WT) (from UniProt Q13563 1-968) (natural protein) | 4 | –
PKD2 R803X Taiwan founder truncation variant (from UniProt Q13563 1-802) (domain or fragment) | – | 4
